This test addresses T1, Recombinant human VEGF R2 (R&D Systems, #357-KD) (human, UniProt P35968 20-764).
T1 construct: Immobilized by amine coupling on a CM5 chip (approx. 9,500 RU)
Briefly: SPR (BIAcore T200): VEGF-A-121 (10 nM, pre-incubated with COMP-anti-VEGF-Fab) injected over amine-coupled VEGF R2. As to the method: Binding was investigated by surface plasmon resonance using a BIAcore T200 instrument (GE Healthcare). All experiments were performed at 25° C. using HBS-P (10 mM HEPES, 140 mM NaCl, 0.05% PS20, pH 7.4) as running and dilution buffer. Recombinant human VEGF R2 (R&D Systems, #357-KD) was immobilized on a Series S CM5 Sensor Chip (GE Healthcare) using standard amine coupling chemistry resulting a surface density of approx. 9,500 RU. […] Subsequently the surface was regenerated by injecting 10 mM Glycine solution (pH 2.0) for 60 sec., followed by 5 mM NaOH for 60 sec. at a flow rate of 5 μl/min. Bulk refractive index differences were corrected by subtracting the response obtained from a mock surface. Blank injections were subtracted (double referencing). The derived binding signals (resonance units RU) were plotted against the antibody concentrations to calculate IC₅₀ values.
On the technique in general: Surface plasmon resonance follows binding to a sensor surface in real time, without labels.

T1 sequence (P35968 20-764 limits assumed): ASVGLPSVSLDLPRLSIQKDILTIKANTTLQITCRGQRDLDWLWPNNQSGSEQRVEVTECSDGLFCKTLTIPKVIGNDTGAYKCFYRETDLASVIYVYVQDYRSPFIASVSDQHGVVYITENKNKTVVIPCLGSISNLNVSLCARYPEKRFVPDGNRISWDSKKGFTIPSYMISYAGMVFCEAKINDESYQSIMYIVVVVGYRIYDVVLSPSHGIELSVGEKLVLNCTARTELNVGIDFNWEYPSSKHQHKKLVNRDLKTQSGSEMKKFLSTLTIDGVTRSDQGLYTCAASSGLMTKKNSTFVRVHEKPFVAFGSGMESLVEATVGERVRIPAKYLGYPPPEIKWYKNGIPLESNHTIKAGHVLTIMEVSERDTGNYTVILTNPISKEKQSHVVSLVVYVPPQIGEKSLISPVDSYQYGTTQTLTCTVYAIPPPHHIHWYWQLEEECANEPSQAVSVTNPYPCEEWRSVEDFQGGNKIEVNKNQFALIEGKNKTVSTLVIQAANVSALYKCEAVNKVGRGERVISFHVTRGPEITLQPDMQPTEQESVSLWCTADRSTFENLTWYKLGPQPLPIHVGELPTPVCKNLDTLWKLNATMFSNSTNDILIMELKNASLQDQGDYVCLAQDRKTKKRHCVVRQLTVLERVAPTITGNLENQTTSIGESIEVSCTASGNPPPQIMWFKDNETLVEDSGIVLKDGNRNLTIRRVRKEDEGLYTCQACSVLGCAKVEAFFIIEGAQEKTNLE

B1: VEGF-A-121 (ligand, UniProt P15692-9 27-147, looked up)
chain: APMAEGGGQNHHEVVKFMDVYQRSYCHPIETLVDIFQEYPDEIEYIFKPSCVPLMRCGGCCNDEGLECVPTEESNITMQIMRIKPHQGQHIGEMSFLQHNKCECRPKKDRARQEKCDKPRR
notes: Used at 10 nM in solution, pre-incubated with the antibody molecules
B1: the binding result is given as “binds”.

Source of the values: US20200399341A1 (Hoffmann-La Roche, published 2020).
